The series “PFO-PAGE and immunoblot” deals with the molecule itself. As to the kind of experiment: PFO-PAGE and immunoblot. A general note: In western blotting, separated proteins are transferred to a membrane and probed.
For the next series, the target named is T1, human basigin-2 (human, UniProt P35613 140-385).
T1 construct: Endogenous glycosylated protein of HESC uterine fibroblasts and CCL-2 (HeLa) cells, found in the membrane fraction; also called basigin isoform 2; 50 kDa basigin protein
T1 sequence: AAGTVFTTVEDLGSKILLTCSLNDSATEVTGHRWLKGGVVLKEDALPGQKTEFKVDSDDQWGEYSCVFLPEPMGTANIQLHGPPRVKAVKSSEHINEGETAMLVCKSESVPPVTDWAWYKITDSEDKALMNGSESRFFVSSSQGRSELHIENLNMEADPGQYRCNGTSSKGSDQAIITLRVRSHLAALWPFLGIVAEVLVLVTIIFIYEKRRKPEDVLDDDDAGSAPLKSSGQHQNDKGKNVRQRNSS
Nature of the series: Sulfo-SBED biotin label transfer on HESC and CCL-2 cells, basigin immunoprecipitation, neutravidin-HRP blot. As to the method: Biotin label transfer from rBSG to CCL-2 cells (HeLa) was performed by treating cells with increasing concentrations of SEED-labeled rBSG (0, 0.05, 0.5, 5, and 50 μg/ml) for 10 minutes at 37° C. Following 5 minutes of UV light treatment, cells were washed twice with PBS and total cell lysates collected using IP buffer. Proteins from labeled cells were precipitated with either neutravidin beads (FIGS. 7A and 7B) or immunoprecipitated with the P2C2 mAb (FIGS. 7C and 7D). Precipitated proteins were resolved by 15% SDS-PAGE in duplicate, and immunoblotted with either Streptavidin-HRP (FIGS. 7A and 7C) or with the R&D Systems anti-hEMMPRIN pAb (FIGS. 7B and 7D). The Santa Cruz goat anti-rabbit (anti-mouse, anti-human depleted)-HRP secondary antibody used for this experiment was previously shown to not cross-react with the P2C2 mAb. The basigin-2 band is indicated with an arrowhead and the basigin-3/rBSG band is indicated with an arrow. This experiment was performed twice with similar results.
Immunoprecipitation and Immunoblot Analysis. Immunoprecipitation of basigin was performed using the monoclonal antibody P2C2. Ten to […] of antibody added to 1 mg soluble protein was incubated overnight at 4° C. with rocking, and immune complexes were collected on protein G SEPHAROSE beads for 4 hours at 4° C. Immunoprecipitated proteins were resolved by SDS-PAGE using standard methods. […]

B1: recombinant human basigin extracellular domain construct (rBSG) (ligand)
chain: WSHPQFEKAGTVFTTVEDLGSKILLTCSLNDSATEVTGHRWLKGGVVLKEDALPGQKTEFKVDSDDQWGEYSCVFLPEPMGTANIQLHGPPRVKAVKSSEHINEGETAMLVCKSESVPPVTDWAWYKITDSEDKALMNGSESRFFVSSSQGRSELHIENLNMEADPGQYRCNGTSSKGSDQAIITLRVRSHLHHHHHH
notes: also called recombinant basigin; soluble rBSG
On to B1, for which the binding result in “PFO-PAGE and immunoblot” was “binds”; in the series with human basigin-2 it was “binds”.

The values are drawn from patent publication US20100092494A1 (BOARD OF TRUSTEES OF THE UNIVERSITY OF ILLINOIS, published 2010).
